Results from patent US20240108738A1 (Bicycle, published 2024).
Numbered stars: 1 amine (or outer) side, 2 acyl side, 3 side chain; on linkers, the order of the positions; unused ones are H or OH. Bridge positions count the residues as written; N and C are the ends. Square brackets hold non-standard residues; d marks the D form. Ends that are not written are not given here. TATA = O=C(CC[*:1])N1CN(C(=O)CC[*:2])CN(C(=O)CC[*:3])C1; Trp(1-Me) = Cn1cc(C[C@H](N)C(=O)O)c2ccccc21; Ala(4-thiazolyl) = N[C@@H](Cc1cscn1)C(=O)O; 1Nal = N[C@@H](Cc1cccc2ccccc12)C(=O)O; cisHyp = O=C(O)[C@@H]1C[C@H](O)CN1; tBuAla = CC(C)(C)C[C@H](N)C(=O)O; 2Pal = N[C@@H](Cc1ccccn1)C(=O)O; Cba = N[C@@H](CC1CCC1)C(=O)O; Chg = N[C@H](C(=O)O)C1CCCCC1; Tle = CC(C)(C)[C@H](N)C(=O)O; Sar = CNCC(=O)O

Molecular target: T1, Human NKp46 Fc tag (Acro Biosystems, NC1-H5257) (human, UniProt O76036 22-255)
T1 construct: bought; also called Fc-tagged human NKp46
Assay: SPR Method 1 and/or 2
Procedure: The SPR analysis was run at 25° C. and a flow rate of 50 μl/min with 60 seconds association and 200-400 seconds dissociation time. Data were corrected for DMSO excluded volume effects. All data were double-referenced for blank injections and reference surface using standard processing procedures and data processing and kinetic fitting were performed using Scrubber software, version 2.0c (BioLogic Software). Data were fitted using simple 1:1 binding model allowing for mass transport effects where appropriate.
For analysis of peptide binding, a Biacore 8k+ instrument was used with a CM5 chip (Cytiva). All experiments were carried out at 25° C. Anti-human IgG (Fc) antibody (Cytiva) was immobilized on all flow cells by standard amine coupling chemistry. The running buffer was HBS-N(Cytiva, 10 mM HEPES, 0.15 M NaCl, pH 7.4) and the flow rate was 10 μL/min. The carboxymethyl dextran surface was activated with a 1:1 ratio of 0.4 M 1-ethyl-3-(3-dimethylaminopropyl) carbodiimide hydrochloride (EDC)/0.1 M N-hydroxy succinimide (NHS) (Cytiva) for 420s. […] Residual activated groups were blocked with a 420 s injection of 1 M ethanolamine (pH 8.5). The final surface density was 3000-5000 RU. Fc-tagged human NKp46 was diluted to 0.1 μM in HBS-N and was captured on flow cell 2 only of the sensor chip at a flow rate of 10 μL/min to 500-1000 RU. The buffer was then changed to PBS-P+(Cytiva) supplemented with 2% DMSO. […] The flow rate was 50 μL/min with 60 s association and 400 s dissociation. Data were corrected for DMSO volume exclusion effects. All data were double-referenced against blank injections and reference surface response using standard processing procedures. Data processing and kinetic fitting was performed using Biacore Insight Evaluation Software with Extended Screening and Characterization Extension (Cytiva). Data were fitted using steady state affinity 1:1 binding model to determine KD. Data were fitted using kinetic 1:1 binding model to determine kinetic constants where appropriate.

T1 sequence (O76036 22-255 limits assumed): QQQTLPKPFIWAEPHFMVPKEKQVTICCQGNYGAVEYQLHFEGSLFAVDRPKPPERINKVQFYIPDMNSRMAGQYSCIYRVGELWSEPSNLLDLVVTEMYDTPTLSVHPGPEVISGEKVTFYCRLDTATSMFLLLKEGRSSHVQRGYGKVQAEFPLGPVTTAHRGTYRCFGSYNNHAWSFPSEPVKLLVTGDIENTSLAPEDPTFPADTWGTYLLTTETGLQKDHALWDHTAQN

Row | Binder | Kd
1 | Ac-CDLTTHNCQWGIC-NH2 (linker 1-8-13 via TATA, scaffold TATA) [BCY18260] | 1240 nM
2 | ACDLTTHNCQWG[tBuAla]CA-NH2 (linker 2-9-14 via TATA, scaffold TATA) [BCY18290] | 4890 nM
3 | ACNLQA[cisHyp]CMLTGKVCA-NH2 (linker 2-8-15 via TATA, scaffold TATA) [BCY18310] | 802 nM
4 | ACDLTTHNCQWG[Tle]CA-NH2 (linker 2-9-14 via TATA, scaffold TATA) [BCY18289] | 572 nM
5 | ACDLTTHNCQWGICA-NH2 (linker 2-9-14 via TATA; also: scaffold TATA, TATB or TBMT, scaffold TATA) [BCY15107] | 396 nM
6 | ACDLTLHNCQWGICA-NH2 (linker 2-9-14 via TATA; also: scaffold TATA, TATB or TBMT, scaffold TATA) [BCY18278] | 335 nM
7 | ACNLTTHNCQWGICA-NH2 (linker 2-9-14 via TATA; also: scaffold TATA, TATB or TBMT, scaffold TATA) [BCY18273] | 326 nM
8 | ACDLTTHNCQW[dA]ICA-NH2 (linker 2-9-14 via TATA; N-terminus assumed; SMILES CC[C@H](C)[C@@H]1NC(=O)[C@@H](C)NC(=O)[C@H](Cc2c[nH]c3ccccc23)NC(=O)[C@H](CCC(N)=O)NC(=O)[C@@H]2CSCCC(=O)N3CN(CN(C3)C(=O)CCSC[C@@H](C(=O)N[C@@H](C)C(N)=O)NC1=O)C(=O)CCSC[C@H](NC(=O)[C@H](C)N)C(=O)N[C@@H](CC(=O)O)C(=O)N[C@@H](CC(C)C)C(=O)N[C@@H]([C@@H](C)O)C(=O)N[C@@H]([C@@H](C)O)C(=O)N[C@@H](Cc1c[nH]cn1)C(=O)N[C@@H](CC(N)=O)C(=O)N2, scaffold TATA) [BCY18292] | 1460 nM
9 | ACDLTTHNCQ[1Nal]GICA-NH2 (linker 2-9-14 via TATA; N-terminus assumed; SMILES CC[C@H](C)[C@@H]1NC(=O)CNC(=O)[C@H](Cc2cccc3ccccc23)NC(=O)[C@H](CCC(N)=O)NC(=O)[C@@H]2CSCCC(=O)N3CN(CN(C3)C(=O)CCSC[C@@H](C(=O)N[C@@H](C)C(N)=O)NC1=O)C(=O)CCSC[C@H](NC(=O)[C@H](C)N)C(=O)N[C@@H](CC(=O)O)C(=O)N[C@@H](CC(C)C)C(=O)N[C@@H]([C@@H](C)O)C(=O)N[C@@H]([C@@H](C)O)C(=O)N[C@@H](Cc1c[nH]cn1)C(=O)N[C@@H](CC(N)=O)C(=O)N2, scaffold TATA) [BCY18287] | 637 nM
10 | ACNLQA[Sar]CMLTGKVCA-NH2 (linker 2-8-15 via TATA; N-terminus assumed; SMILES CSCC[C@@H]1NC(=O)[C@@H]2CSCCC(=O)N3CN(CN(C3)C(=O)CCSC[C@@H](C(=O)N[C@@H](C)C(N)=O)NC(=O)[C@H](C(C)C)NC(=O)[C@H](CCCCN)NC(=O)CNC(=O)[C@H]([C@@H](C)O)NC(=O)[C@H](CC(C)C)NC1=O)C(=O)CCSC[C@H](NC(=O)[C@H](C)N)C(=O)N[C@@H](CC(N)=O)C(=O)N[C@@H](CC(C)C)C(=O)N[C@@H](CCC(N)=O)C(=O)N[C@@H](C)C(=O)N(C)CC(=O)N2, scaffold TATA) [BCY18309] | 2570 nM
11 | ACDLTTHNCQ[Trp(1-Me)]GICA-NH2 (linker 2-9-14 via TATA; N-terminus assumed; SMILES CC[C@H](C)[C@@H]1NC(=O)CNC(=O)[C@H](Cc2cn(C)c3ccccc23)NC(=O)[C@H](CCC(N)=O)NC(=O)[C@@H]2CSCCC(=O)N3CN(CN(C3)C(=O)CCSC[C@@H](C(=O)N[C@@H](C)C(N)=O)NC1=O)C(=O)CCSC[C@H](NC(=O)[C@H](C)N)C(=O)N[C@@H](CC(=O)O)C(=O)N[C@@H](CC(C)C)C(=O)N[C@@H]([C@@H](C)O)C(=O)N[C@@H]([C@@H](C)O)C(=O)N[C@@H](Cc1c[nH]cn1)C(=O)N[C@@H](CC(N)=O)C(=O)N2, scaffold TATA) [BCY18288] | 354 nM
12 | ACN[tBuAla]QAPCMLTGKVCA-NH2 (linker 2-8-15 via TATA, scaffold TATA) [BCY18307] | 2110 nM
13 | ACDLTTHNC[Cba]WGICA-NH2 (linker 2-9-14 via TATA, scaffold TATA) [BCY18286] | 1230 nM
14 | ACDLTTHNCQWG[Chg]CA-NH2 (linker 2-9-14 via TATA, scaffold TATA) [BCY18291] | 2850 nM
15 | Ac-CNLQAPCMLTGKVC-NH2 (linker 1-7-14 via TATA (inferred), scaffold TATA) [BCY18293] | 3380 nM
16 | Ac-ACNLQAPCMLTGKVCA-NH2 (linker 2-8-15 via TATA (inferred), scaffold TATA) [BCY18294] | 3260 nM
17 | ACDLTT[2Pal]NCQWGICA-NH2 (linker 2-9-14 via TATA; N-terminus assumed; SMILES CC[C@H](C)[C@@H]1NC(=O)CNC(=O)[C@H](Cc2c[nH]c3ccccc23)NC(=O)[C@H](CCC(N)=O)NC(=O)[C@@H]2CSCCC(=O)N3CN(CN(C3)C(=O)CCSC[C@@H](C(=O)N[C@@H](C)C(N)=O)NC1=O)C(=O)CCSC[C@H](NC(=O)[C@H](C)N)C(=O)N[C@@H](CC(=O)O)C(=O)N[C@@H](CC(C)C)C(=O)N[C@@H]([C@@H](C)O)C(=O)N[C@@H]([C@@H](C)O)C(=O)N[C@@H](Cc1ccccn1)C(=O)N[C@@H](CC(N)=O)C(=O)N2, scaffold TATA) [BCY18280] | 1270 nM
18 | ACDLTT[His3Me]NCQWGICA-NH2 (linker 2-9-14 via TATA; not fully specified, scaffold TATA) [BCY18279] | 599 nM
19 | Ac-ACDLTTHNCQWGICA-NH2 (linker 2-9-14 via TATA, scaffold TATA) [BCY18261] | 543 nM
20 | ACDLTT[Ala(4-thiazolyl)]NCQWGICA-NH2 (linker 2-9-14 via TATA; N-terminus assumed; SMILES CC[C@H](C)[C@@H]1NC(=O)CNC(=O)[C@H](Cc2c[nH]c3ccccc23)NC(=O)[C@H](CCC(N)=O)NC(=O)[C@@H]2CSCCC(=O)N3CN(CN(C3)C(=O)CCSC[C@@H](C(=O)N[C@@H](C)C(N)=O)NC1=O)C(=O)CCSC[C@H](NC(=O)[C@H](C)N)C(=O)N[C@@H](CC(=O)O)C(=O)N[C@@H](CC(C)C)C(=O)N[C@@H]([C@@H](C)O)C(=O)N[C@@H]([C@@H](C)O)C(=O)N[C@@H](Cc1cscn1)C(=O)N[C@@H](CC(N)=O)C(=O)N2, scaffold TATA) [BCY18282] | 661 nM
21 | ACNLQAPCMLTGKVCA-NH2 (linker 2-8-15 via TATA; also: scaffold TATA, TATB or TBMT, scaffold TATA) [BCY15099] | 1120 nM
22 | ACNLQAPCMLTAKVCA-NH2 (linker 2-8-15 via TATA; also: scaffold TATA, TATB or TBMT, scaffold TATA) [BCY18303] | 2750 nM
23 | ACNLQAPCMLTGKACA-NH2 (linker 2-8-15 via TATA; also: scaffold TATA, TATB or TBMT, scaffold TATA) [BCY18305] | 907 nM
24 | ACNLQAPCMFTGKVCA-NH2 (linker 2-8-15 via TATA; also: scaffold TATA, TATB or TBMT, scaffold TATA) [BCY18317] | 2080 nM
25 | ACNLQAPCLLTGKVCA-NH2 (linker 2-8-15 via TATA; also: scaffold TATA, TATB or TBMT, scaffold TATA) [BCY18313] | 2750 nM
26 | ACNLQAPCMLT[dA]KVCA-NH2 (linker 2-8-15 via TATA (inferred), scaffold TATA) [BCY18322] | 466 nM
27 | ACNLQAPCMLTGRVCA-NH2 (linker 2-8-15 via TATA; also: scaffold TATA, TATB or TBMT, scaffold TATA) [BCY18323] | 2340 nM
28 | ACDLTT[His1Me]NCQWGICA-NH2 (linker 2-9-14 via TATA; not fully specified, scaffold TATA) [BCY18281] | 424 nM
